Results from paper PMC11381335, “Unraveling the structure and function of a novel SegC protein interacting with the SegAB chromosome segregation complex in Archaea” (Nucleic Acids Research, 2024).

Experiments:
[1] = molecular target: SegC (SSO0033) (Saccharolobus solfataricus); assay: crystal structure; SegC crystals grown in 100 mM Tris-HCl pH 8.5, 300 mM potassium thiocyanate, 20°C; 2.8 Å; also soaked with 20 mM ATP (SegC-ADP)
[2] = molecular target: SegC labeled with Alexa488 green-fluorescent dye (Saccharolobus solfataricus); assay: fluorescence polarisation; 10 nM Alexa488-labeled SegC; SegA or SegB in 2-fold serial dilution from 10 uM; room temperature, 30 min; 20 mM HEPES-NaOH pH 7.3, 100 mM NaCl, 2 mM MgCl2; concentration of protein that binds 50% of the labeled SegC
SegC (SSO0033) [3] = molecular target: T1, SegC (SSO0033) (Saccharolobus solfataricus, UniProt Q981B4); assay: X-ray crystal structure of ATP-soaked SegC crystals; format: binding; details: apo crystals soaked within one minute in 20 mM ATP, 2 mM MgCl2, pH 7.5; ADP modelled at the interface of two dimers (Tyr61, Arg73)
T1 construct: full length 165 residues, C-terminal His6 (pET21b), E. coli BL21(DE3)

SegC (SSO0033) [4] = molecular target: T1, SegC (SSO0033); assay: malachite green phosphate release; format: biochemical; details: 10 uM protein, 1 mM NTP, 2 mM MgCl2, 100 mM NaCl, pH 7.5, 37 °C, 1 h; no DNA

Chain of SegC labeled with Alexa488 green-fluorescent dye (Saccharolobus solfataricus) (Q981B4 entry or part of it): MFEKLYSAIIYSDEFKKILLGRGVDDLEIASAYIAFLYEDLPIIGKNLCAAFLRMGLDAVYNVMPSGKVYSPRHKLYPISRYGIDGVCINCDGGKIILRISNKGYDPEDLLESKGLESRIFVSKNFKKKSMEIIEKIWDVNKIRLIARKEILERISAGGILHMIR
T1 sequence (Q981B4 entry or part of it): as above

In the case of SegC (SSO0033) (natural protein), the stoichiometry N [1] is reported as 4.

For SegB (natural protein), the Kd [2] was 1400 nM.

In the case of Nc1ncnc2c1ncn2[C@@H]1O[C@H](COP(=O)(O)OP(=O)(O)O)[C@@H](O)[C@H]1O [ADP], the “X-ray crystal structure of ATP-soaked SegC crystals” value (SegC (SSO0033) [3]) is reported as “In this SegC-ADP complex structure, two residues (Tyr61 and Arg73) were found to interact”.

With Nc1ccn([C@@H]2O[C@H](COP(=O)(O)OP(=O)(O)OP(=O)(O)O)[C@@H](O)[C@H]2O)c(=O)n1 [CTP] the “malachite green phosphate release” value (SegC (SSO0033) [4]) was “SegC exhibited catalytic activity against all of the tested NTPs with no apparent preference”.

Compound SegA (natural protein) has a Kd [2] of 1800 nM.
